Source: patent publication US20160002344A1 (ONCOMED PHARMACEUTICALS, published 2016)
Substitutions are numbered along the chain they refer to. Where two headings read alike, the source gives them in different places. One block for each binder: values may come before it.

Key:
[1] = biological target: T1, recombinant human RSPO1-Fc fusion protein (human, UniProt Q2MKA7 21-263); assay: SPR (Biacore 2000), RSPO1-Fc immobilized on CM5 chip, antibody injected 100 nM to 0.78 nM
T1 construct: not shown: human Fc region
Procedure: (§1) The KD of h89M5-H2L2 was determined using a Biacore 2000 system from Biacore LifeSciences (GE Healthcare). Recombinant human RSPO1-Fc or mouse RSPO1-Fc proteins were immobilized on CM5 chips using standard amine-based chemistry (NHS/EDC). The antibodies were serially diluted 2-fold from 100 nM to 0.78 nM in HBS-P (0.01M HEPES pH7.4, 0.15M NaCl, 0.005% v/v Surfactant P20) and were injected over the chip surface. Kinetic data were collected over time and were fit using the simultaneous global fit equation to yield affinity constants (KD values) for each antibody.
Target sequence in this assay (Q2MKA7 21-263): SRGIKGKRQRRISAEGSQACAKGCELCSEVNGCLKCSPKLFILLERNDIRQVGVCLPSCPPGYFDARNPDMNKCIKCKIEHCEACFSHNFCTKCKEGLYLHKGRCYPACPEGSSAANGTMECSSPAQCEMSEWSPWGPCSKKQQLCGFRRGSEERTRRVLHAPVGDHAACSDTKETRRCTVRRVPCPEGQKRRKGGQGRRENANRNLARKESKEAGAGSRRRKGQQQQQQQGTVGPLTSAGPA

[2] = biological target: T2, recombinant mouse RSPO1-Fc protein (mouse, UniProt Q9Z132 21-265, limits assumed); assay: as above
T2 construct: Construct not described; not shown: Fc; not described
Procedure: as §1
Target sequence in this assay (Q9Z132 21-265 limits assumed): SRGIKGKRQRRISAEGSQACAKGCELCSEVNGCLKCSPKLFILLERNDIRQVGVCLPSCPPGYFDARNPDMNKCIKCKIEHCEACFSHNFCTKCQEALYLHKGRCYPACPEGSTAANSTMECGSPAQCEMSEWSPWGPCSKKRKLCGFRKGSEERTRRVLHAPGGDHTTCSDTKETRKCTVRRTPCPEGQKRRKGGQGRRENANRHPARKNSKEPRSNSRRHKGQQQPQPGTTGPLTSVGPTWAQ

[3] = biological target: T3, recombinant human RSPO2-Fc fusion protein (human, UniProt Q6UXX9 22-243); assay: SPR (Biacore 2000), human RSPO2-Fc immobilized on CM5 chip, antibody injected 100 nM to 0.78 nM
T3 construct: not shown: human Fc region
T3 chain: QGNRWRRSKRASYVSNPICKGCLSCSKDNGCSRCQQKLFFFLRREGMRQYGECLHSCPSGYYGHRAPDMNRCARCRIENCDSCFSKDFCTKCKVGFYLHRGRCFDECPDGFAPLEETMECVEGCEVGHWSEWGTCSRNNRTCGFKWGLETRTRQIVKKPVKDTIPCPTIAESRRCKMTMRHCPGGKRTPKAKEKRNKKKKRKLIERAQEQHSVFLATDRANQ
Procedure: as §1, with “h130M23-H1L2 and h130M23-H1L6 were” for “h89M5-H2L2 was”, “RSPO2-Fc protein was” for “RSPO1-Fc or mouse RSPO1-Fc proteins were”

[4] = biological target: T1, recombinant human RSPO1-Fc fusion …; assay: SPR (Biacore 2000), RSPO1-Fc immobilized on CM5 chip, antibody injected 100 nM to 0.78 nM; remark: listed apart in the source
Procedure: as §1, with “The KDs” for “The KD”, “of antibodies 89M4, 89M5, 89M7 and 89M25 were” for “of h89M5-H2L2 was”

[5] = biological target: T2, recombinant mouse RSPO1-Fc protein; assay: as above; remark: listed apart in the source
Procedure: as §1, with “The KDs” for “The KD”, “of antibodies 89M4, 89M5, 89M7 and 89M25 were” for “of h89M5-H2L2 was”

[6] = biological target: Figure 9A construct 2: Positive charge, furin1, furin2 (human) (UniProt Q2MKA7); assay: FACS, HEK-293 cells transfected with the FLAG-RSPO1 portion-CD4TM construct in Figure 9A; anti-RSPO1 antibody 89M5, PE-conjugated secondary antibody
Figure 9A construct 2: Positive charge, furin1, furin2 (human), sequence (Q2MKA7 other isoform, or with tags, fused parts or gaps): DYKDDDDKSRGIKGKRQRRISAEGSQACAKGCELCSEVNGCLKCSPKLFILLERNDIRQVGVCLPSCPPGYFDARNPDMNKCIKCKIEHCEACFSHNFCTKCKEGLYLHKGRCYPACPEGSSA

[7] = biological target: Figure 9A construct 4: Positive charge, furin1, furin2, cysteine, Thrombospondin, Positive charge (human) (UniProt Q2MKA7); assay: as above
[8] = biological target: Figure 9A construct 3: Positive charge, furin1, furin2, cysteine, Thrombospondin (human) (UniProt Q2MKA7); assay: as above
Figure 9A construct 3: Positive charge, furin1, furin2, cysteine, Thrombospondin (human), sequence (Q2MKA7 other isoform, or with tags, fused parts or gaps): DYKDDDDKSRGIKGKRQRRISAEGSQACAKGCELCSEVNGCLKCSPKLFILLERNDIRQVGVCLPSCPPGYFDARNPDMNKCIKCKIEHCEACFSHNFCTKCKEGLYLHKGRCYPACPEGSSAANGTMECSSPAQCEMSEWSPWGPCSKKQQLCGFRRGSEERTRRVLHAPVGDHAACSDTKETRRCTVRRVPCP

[9] = biological target: Figure 9A construct 1: Positive charge, furin1 (human) (UniProt Q2MKA7); assay: as above
Figure 9A construct 1: Positive charge, furin1 (human), sequence (Q2MKA7 other isoform, or with tags, fused parts or gaps): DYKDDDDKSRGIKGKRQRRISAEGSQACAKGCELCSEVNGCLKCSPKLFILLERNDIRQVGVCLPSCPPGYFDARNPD

[10] = biological target: Figure 9A construct 5: furin1, furin2, cysteine (human) (UniProt Q2MKA7); assay: as above
Figure 9A construct 5: furin1, furin2, cysteine (human), sequence (Q2MKA7 other isoform, or with tags, fused parts or gaps): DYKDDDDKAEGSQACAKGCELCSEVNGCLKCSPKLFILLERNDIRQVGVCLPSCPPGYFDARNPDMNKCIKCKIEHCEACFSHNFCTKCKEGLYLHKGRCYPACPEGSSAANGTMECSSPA

[11] = biological target: T4, recombinant mouse RSPO2-Fc protein (mouse, UniProt Q8BFU0 24-243, limits assumed); assay: SPR (Biacore 2000), RSPO2-Fc immobilized on CM5 chip, antibody injected 100 nM to 0.78 nM
T4 construct: Construct not described; not shown: Fc; not described
T4 sequence (Q8BFU0 24-243 limits assumed): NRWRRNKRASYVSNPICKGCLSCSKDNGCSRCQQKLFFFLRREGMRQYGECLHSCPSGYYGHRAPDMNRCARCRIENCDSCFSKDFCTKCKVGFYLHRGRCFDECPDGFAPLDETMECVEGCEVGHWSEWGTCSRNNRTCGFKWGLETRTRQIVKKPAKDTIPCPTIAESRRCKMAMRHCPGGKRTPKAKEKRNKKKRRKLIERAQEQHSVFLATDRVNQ
Procedure: as §1, with “130M23” for “h89M5-H2L2”, “RSPO2-Fc” for “RSPO1-Fc”

[12] = biological target: T3, recombinant human RSPO2-Fc fusion …; assay: as above
Procedure: as §1, with “130M23” for “h89M5-H2L2”, “RSPO2-Fc” for “RSPO1-Fc”

Kd [1]: < 0.1 nM
Kd [2]: < 0.1 nM
B1: humanized anti-RSPO1 antibody h89M5-H2L2 (antibody, human IgG2, kappa, V domains shown)
VH: QVQLVQSGAEVKKPGASVKVSCKTSGYTFTGYTMHWVRQAPGQRLEWMGGINPNNGGTTYNQNFKGRVTITRDTSASTAYMELSSLRSEDTAVYYCARKEFSDGYYFFAYWGQGTLVTVSS
VL: DIQMTQSPSSLSASVGDRVTITCKASQDVIFAVAWYQQKPGKAPKLLIYWASTRHTGVPSRFSGSGSGTDYTLTISSLQPEDFATYYCQQHYSTPWTFGGGTKVEIKR
notes: also called humanized 89M5; 89M5-H2 with 89M5-L2

Kd [3]: 0.13 nM
B2: humanized anti-RSPO2 antibody h130M23-H1L2 (antibody, human IgG2, kappa, V domains shown)
VH: EVQLVESGGGLVKPGGSLRLSCAASGFTFSSYAMSWVRQAPGKGLEWVSSISSGGSTYYPDSVKGRFTISRDNAKNSLYLQMNSLRAEDTAVYYCARGGDPGVYNGDYEDAMDYWGQGTTVTVSS
VL: B1 VL with I30S, F31S, Y71F, L78V, P80A, G100Q
notes: also called 130M23-H1 with 130M23-L2

Kd [3]: 0.15 nM
B3: humanized anti-RSPO2 antibody h130M23-H1L6 (antibody, human IgG2, kappa, V domains shown)
VH: B2 VH
VL: B1 VL with I30S, F31S, Y71F, G100Q

Kd [4]: < 0.1 nM
Kd [5]: < 0.1 nM
MFI [6]: 15.5
MFI [7]: 10.3
MFI [8]: 20.1
MFI [9]: 5.42
MFI [10]: 406
B4: anti-RSPO1 monoclonal antibody 89M5 (hybridoma ATCC PTA-11970) (antibody, mouse IgG1, kappa, V domains shown)
VH: EVQLQQSGPELVKPGASVKISCKTSGYTFTGYTMHWVRQSHGKTLEWIGGINPNNGGTTYNQNFKGKATLTVEKSSTTAYLELRSLTSEDSALYYCARKEFSDGYYFFAYWGQGTLVTVSS
VL: DIVMTQSHKFMSTSVGDRVNITCKASQDVIFAVAWYQQKPGQSPKLLIYWASTRHTGVPDRFTGSVSGTDYTLTISSVQAEDLALYYCQQHYSTPWTFGGGTKLEIKR
notes: Murine monoclonal antibody; also called parental 89M5 antibody

Kd [11]: 0.35 nM
Kd [12]: 0.14 nM
B5: anti-RSPO2 monoclonal antibody 130M23 (hybridoma ATCC PTA-12021) (antibody, mouse IgG1, kappa, V domains shown)
VH: EVKLVESGGGLVKPGGSLKFSCAASGFSFSSYAMSWVRQTPEKRLEWVASISSGGSTYYPDSVKGRFTISRDNVRNILYLQMSSLRSEDTAMYFCARGGDPGVYNGDYEDAMDYWGQGTSVTVSS
VL: B4 VL with N20S, I30S, F31S, G64N, V66G
notes: Murine monoclonal antibody; also called parental 130M23 antibody
